Patent US20260159579A1 (Pfizer, published 2026)
Several values for one entry are separate records, joined by “and”; a condition that tells them apart may be missing. Equal entries are not always repeated.

Key:
[1] = target: Mouse Fc-mouse GDF15 (Mu IgG1Fc_Fxa_Mu GDF15) (mouse); experiment: SPR BIAcore T200, 37C; Fc-GDF15 captured, monomeric Fc-Fab as analyte; murine GDF15 ligand (Mu IgG1Fc_Fxa_Mu GDF15), first run
[2] = target: T1, Mouse Fc-cynomolgus monkey GDF15 (Mu IgG1Fc_Fxa_Cyno GDF15) (cynomolgus monkey); experiment: SPR BIAcore T200, 37C; Fc-GDF15 captured, monomeric Fc-Fab as analyte; average of runs
T1 construct: Whole entry is the fusion: mouse IgG1 Fc, FXa site and linker, cynomolgus GDF15; described as dimeric; also called Murine dimeric IgG1 Fc-cyno GDF-15 with FXa cleavage site
T1 chain: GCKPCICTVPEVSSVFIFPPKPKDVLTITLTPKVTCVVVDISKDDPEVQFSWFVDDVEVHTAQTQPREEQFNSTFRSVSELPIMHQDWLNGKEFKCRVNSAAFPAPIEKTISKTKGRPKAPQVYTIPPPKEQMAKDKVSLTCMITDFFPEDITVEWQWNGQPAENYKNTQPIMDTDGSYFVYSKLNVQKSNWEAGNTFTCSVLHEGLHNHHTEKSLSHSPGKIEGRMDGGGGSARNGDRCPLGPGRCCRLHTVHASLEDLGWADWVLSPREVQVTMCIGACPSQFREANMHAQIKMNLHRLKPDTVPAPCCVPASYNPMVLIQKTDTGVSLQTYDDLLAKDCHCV
Description: (§1) To understand the KD value, without the avidity effect, of GDF15_001 binding to GDF15, monomeric Fc-Fab was produced and tested in the same assay used in Example 2. […] Mu IgG1Fc_Fxa_Hu GDF15, Mu IgG1Fc_Fxa_Mu GDF15 and Mu IgG1Fc_Fxa_Cyno GDF15 were captured onto three different flow cells of a CM4 sensorchip (catalogue number BR100534, GE Healthcare) surface using the Mouse Antibody Capture Kit (BR100838, GE Healthcare) according to the manufacturer's protocol. The running and sample buffer was 10 mM HEPES pH 7.4, 0.15M NaCl, 3 mM EDTA, 0.05% P-20 (HBS-EP+). The final capture levels of Mu IgG1Fc_Fxa_Hu GDF15, Mu IgG1Fc_Fxa_Mu GDF15 and Mu IgG1Fc_Fxa_Cyno GDF15 were 19 resonance units (RU), 22 RU and 19 RU respectively. Flow cell 1 was used as a reference flow cell. […] The dissociation was monitored for 1200 seconds and the surface was regenerated with 10 mM Glycine pH 1.7. Binding affinities and rate constants were determined by fitting the resulting sensorgram data to a 1:1 Langmuir model in BIAcore T200 Evaluation software version 2.0 (GE Healthcare).

[3] = target: T2, Mouse Fc-human GDF15 (Mu IgG1Fc_Fxa_Hu GDF15) (human); experiment: as above
T2 construct: Whole entry is the fusion: mouse IgG1 Fc, FXa site and linker, mature human GDF15; described as dimeric; also called Murine dimeric IgG1 Fc-human GDF-15 with FXa cleavage site; control human GDF15
T2 chain: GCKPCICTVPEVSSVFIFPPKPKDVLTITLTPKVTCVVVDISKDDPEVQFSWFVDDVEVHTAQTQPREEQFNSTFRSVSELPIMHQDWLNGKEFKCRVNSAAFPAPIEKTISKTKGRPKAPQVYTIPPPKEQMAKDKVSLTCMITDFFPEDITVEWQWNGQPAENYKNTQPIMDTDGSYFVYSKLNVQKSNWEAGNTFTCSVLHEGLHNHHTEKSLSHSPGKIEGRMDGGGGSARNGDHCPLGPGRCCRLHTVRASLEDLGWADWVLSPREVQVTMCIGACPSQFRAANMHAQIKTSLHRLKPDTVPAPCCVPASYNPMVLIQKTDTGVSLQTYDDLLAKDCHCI
Description: as §1

[4] = target: T1, Mouse Fc-cynomolgus monkey GDF15 (Mu …); experiment: SPR BIAcore T200, 37C; Fc-GDF15 captured, monomeric Fc-Fab as analyte
Description: as §1

[5] = target: T2, Mouse Fc-human GDF15 (Mu IgG1Fc_Fxa_Hu …); experiment: as above
Description: as §1

[6] = target: T2, Mouse Fc-human GDF15 (Mu IgG1Fc_Fxa_Hu …); experiment: SPR BIAcore T200, 37C; Fc-GDF15 captured, monomeric Fc-Fab as analyte; human GDF15 ligand (Mu IgG1Fc_Fxa_Hu GDF15), second run
Description: as §1

[7] = target: T2, Mouse Fc-human GDF15 (Mu IgG1Fc_Fxa_Hu …); experiment: SPR BIAcore T200, 37C; Fc-GDF15 captured, monomeric Fc-Fab as analyte; human GDF15 ligand (Mu IgG1Fc_Fxa_Hu GDF15), first run
Description: as §1

[8] = target: Mouse Fc-mouse GDF15 (Mu IgG1Fc_Fxa_Mu GDF15) (mouse); experiment: SPR BIAcore T200, 37C; Fc-GDF15 captured, monomeric Fc-Fab as analyte; murine GDF15 ligand (Mu IgG1Fc_Fxa_Mu GDF15), second run

B1: monomeric GDF15_001 (CH23LS-GBT-GDF15_001) (Fab, V domains shown)
VH: QVQLVQSGAEVKKPGSSVKVSCKASGYTFSSYNIDWVRQAPGQGLEWMGGINPIFGTAFYNQKFQGRVTITADESTSTAYMELSSLRSEDTAVYYCAREAITTVGAMDHWGQGTLVTVSS
VL: EIVLTQSPATLSLSPGERATLSCRTSQSVHNYLAWYQQKPGQAPRLLIYDASTRADGIPARFSGSGSGTDFTLTISSLEPEDFAVYYCQQFWSWPWTFGQGTKVEIK
notes: Monovalent 'monomeric Fc-Fab' of GDF15_001 made to measure KD without avidity; also called CH23LS-GDF15_001; monomeric Fc-Fab
Binder B1 has a Kd [1] of 2.11 nM, a Kd [2] of 0.062 nM and a koff [2] of 8.43e-05 s⁻¹. It also gave a kon [2] of 1.42e+06 M⁻¹ s⁻¹, a Kd [3] of 0.0213 nM and a koff [3] of 3.42e-05 s⁻¹. The kon [3] was 1.59e+06 M⁻¹ s⁻¹, the Kd [4] was 0.0458 nM and 0.0782 nM and the T½ min [4] was 2.57 h and 2.05 h. The koff [4] was 7.48e-05 s⁻¹ and 9.39e-05 s⁻¹, the kon [4] was 1.63e+06 M⁻¹ s⁻¹ and 1.2e+06 M⁻¹ s⁻¹ and the T½ min [5] was 8.54 h and 4.2 h. The koff [5] was 2.25e-05 s⁻¹ and 4.58e-05 s⁻¹, the kon [5] was 1.52e+06 M⁻¹ s⁻¹ and 1.66e+06 M⁻¹ s⁻¹ and the Kd [6] was 0.0276 nM. For the same binder, the Kd [7] was 0.0149 nM and the Kd [8] was 1.82 nM.
